Test results as given in publication PMC7329984, “A Broad Temperature Active Lipase Purified From a Psychrotrophic Bacterium of Sikkim Himalaya With Potential Application in Detergent Formulation” (Frontiers in Bioengineering and Biotechnology, 2020).

Tests used:
[1] = biological target: extracellular lipase of Chryseobacterium polytrichastri ERMR1:04 (Chryseobacterium polytrichastri ERMR1:04 (endogenous, secreted)); experiment: native gel or EMSA; 10% native PAGE of the Octyl-Sepharose purified lipase (250 kDa band) compared with 12% SDS-PAGE (39.8 kDa band)
[2] = test system: T1, ERMR1:04 lipase; experiment: p-nitrophenol release at […] nm; Lineweaver-Burk plot; format: biochemical, Chryseobacterium polytrichastri; settings: 50 mM Tris pH 8, 37°C; 0.025-0.3 mM substrate
T1 construct: gene alpha/beta hydrolase; native extracellular enzyme purified from culture supernatant (ammonium sulfate, Sephadex G-100, Octyl-Sepharose); gene not firmly identified: MALDI top hit alpha/beta hydrolase of Solibacillus sp

extracellular lipase of Chryseobacterium polytrichastri ERMR1:04 (enzyme)
stoichiometry N [1]: 6

CCCCCCCCCCCCCCCC(=O)Oc1ccc([N+](=O)[O-])cc1 [pNPP, p-nitrophenyl palmitate]
Km [2]: 104 µM
